Source: publication PMC5679017 (Journal of medicinal chemistry, 2016)
Values belong to the binder of their own block, whether it stands above or below them. Square brackets hold non-standard residues; d marks the D form. Ends that are not written are not given here.

Experiments:
Test in all cases: radioligand binding
[1] = target: mouse melanocortin-3 receptor, Flag-tagged (mouse, UniProt P33033 1-323)
[2] = target: mouse melanocortin-1 receptor (mouse, UniProt Q01727 1-315)
[3] = target: mouse melanocortin-4 receptor (mouse, UniProt P56450 1-332)
mouse melanocortin-4 receptor, sequence (P56450 whole entry): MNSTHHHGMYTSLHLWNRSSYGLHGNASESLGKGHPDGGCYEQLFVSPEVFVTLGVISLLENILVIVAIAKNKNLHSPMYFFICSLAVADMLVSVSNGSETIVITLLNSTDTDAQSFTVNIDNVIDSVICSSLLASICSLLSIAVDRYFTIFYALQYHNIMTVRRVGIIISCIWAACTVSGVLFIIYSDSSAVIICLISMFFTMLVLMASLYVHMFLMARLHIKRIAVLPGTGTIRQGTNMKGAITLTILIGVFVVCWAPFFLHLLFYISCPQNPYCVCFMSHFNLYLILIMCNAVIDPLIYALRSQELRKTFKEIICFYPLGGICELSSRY

mouse melanocortin-3 receptor, Flag-tagged, sequence (P33033 whole entry): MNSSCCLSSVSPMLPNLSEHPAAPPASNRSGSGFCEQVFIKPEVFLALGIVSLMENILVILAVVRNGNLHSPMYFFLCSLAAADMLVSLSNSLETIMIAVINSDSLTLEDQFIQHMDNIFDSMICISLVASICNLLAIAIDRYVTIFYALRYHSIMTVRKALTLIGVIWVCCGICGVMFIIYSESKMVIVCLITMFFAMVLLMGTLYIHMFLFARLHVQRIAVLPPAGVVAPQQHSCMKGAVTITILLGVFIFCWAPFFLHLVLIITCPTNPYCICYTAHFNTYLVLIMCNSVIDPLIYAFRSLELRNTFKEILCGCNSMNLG
mouse melanocortin-1 receptor, sequence (Q01727 whole entry): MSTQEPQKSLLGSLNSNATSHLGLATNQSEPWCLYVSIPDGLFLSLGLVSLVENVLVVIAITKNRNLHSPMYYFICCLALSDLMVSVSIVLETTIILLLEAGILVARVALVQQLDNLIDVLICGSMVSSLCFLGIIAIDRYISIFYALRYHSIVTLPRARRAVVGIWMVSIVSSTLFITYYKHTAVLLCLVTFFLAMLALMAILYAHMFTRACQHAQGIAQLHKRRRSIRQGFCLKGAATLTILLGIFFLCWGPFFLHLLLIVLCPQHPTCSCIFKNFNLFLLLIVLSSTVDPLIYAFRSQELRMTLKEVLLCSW

IC50 [1]: 3250 nM
IC50 [2]: 27.5 nM
IC50 [3]: 33 nM
B1: compound 6 (CJL-1-31): homobivalent ligand, two His-DPhe-Arg-Trp scaffolds joined by (Pro-Gly)6 (peptide)
peptide: H[dF]RWPGPGPGPGPGPGH[dF]RW-NH2

IC50 [1]: 8430 nM
IC50 [3]: 258 nM
B2: compound 5 (CJL-1-41): His-DPhe-Arg-Trp-NH2 scaffold with (Pro-Gly)6 added to the N-terminus (peptide)
peptide: PGPGPGPGPGPGH[dF]RW-NH2
modifications: N-terminus assumed
SMILES: N=C(N)NCCC[C@H](NC(=O)[C@@H](Cc1ccccc1)NC(=O)[C@H](Cc1c[nH]cn1)NC(=O)CNC(=O)[C@@H]1CCCN1C(=O)CNC(=O)[C@@H]1CCCN1C(=O)CNC(=O)[C@@H]1CCCN1C(=O)CNC(=O)[C@@H]1CCCN1C(=O)CNC(=O)[C@@H]1CCCN1C(=O)CNC(=O)[C@@H]1CCCN1)C(=O)N[C@@H](Cc1c[nH]c2ccccc12)C(N)=O

IC50 [2]: 225 nM
IC50 [3]: 841 nM
B3: compound 4 (CJL-5-35-1): Ac-His-DPhe-Arg-Trp-NH2 scaffold with (Pro-Gly)6 added to the C-terminus (peptide)
peptide: Ac-H[dF]RWPGPGPGPGPGPG-NH2
SMILES: CC(=O)N[C@@H](Cc1c[nH]cn1)C(=O)N[C@H](Cc1ccccc1)C(=O)N[C@@H](CCCNC(=N)N)C(=O)N[C@@H](Cc1c[nH]c2ccccc12)C(=O)N1CCC[C@H]1C(=O)NCC(=O)N1CCC[C@H]1C(=O)NCC(=O)N1CCC[C@H]1C(=O)NCC(=O)N1CCC[C@H]1C(=O)NCC(=O)N1CCC[C@H]1C(=O)NCC(=O)N1CCC[C@H]1C(=O)NCC(N)=O
